From patent US20250304700A1, “ANTI-BLOOD DENDRITIC CELL ANTIGEN 2 ANTIBODIES AND USES THEREOF” (Biogen MA Inc., priority 2012, published 2025)
Where a chain is given by its changes, count along the chain named.

T1: human BDCA2 ectodomain (Homo sapiens, UniProt Q8WTT0)
T1 construct: huBDCA2 ectodomain: residues 257-425 above (underlined); murine IgG2a Fc (with G4S linker) (N, cleaved yes); made in house
T1 sequence (Q8WTT0 45-213): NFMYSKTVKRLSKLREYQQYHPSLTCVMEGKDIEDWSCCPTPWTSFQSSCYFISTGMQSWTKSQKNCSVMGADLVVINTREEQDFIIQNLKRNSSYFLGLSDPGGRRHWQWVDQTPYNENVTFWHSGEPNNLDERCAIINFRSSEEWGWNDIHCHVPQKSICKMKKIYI

T2: surface human BDCA2 (Homo sapiens, UniProt Q8WTT0)
T2 construct: stably transfected DG44 CHO cells co-expressing full-length BDCA2 and FcεRIγcDNAs (human or cynomolgus monkey); expressed in transfected cells
T2 sequence (Q8WTT0 1-213): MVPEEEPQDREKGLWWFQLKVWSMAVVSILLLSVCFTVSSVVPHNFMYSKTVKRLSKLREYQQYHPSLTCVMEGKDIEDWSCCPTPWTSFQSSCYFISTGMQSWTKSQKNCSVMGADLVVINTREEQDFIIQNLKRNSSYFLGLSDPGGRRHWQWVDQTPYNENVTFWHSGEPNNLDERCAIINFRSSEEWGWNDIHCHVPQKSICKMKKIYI
T2 sequence (P30273 19-86 partner): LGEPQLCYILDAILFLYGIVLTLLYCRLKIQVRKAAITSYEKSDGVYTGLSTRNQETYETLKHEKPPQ

B1: H3/L1: hu24F4 variant, heavy chain version H3 (SEQ ID NO: 46), light chain version L1 (antibody, V domains shown)
VH: EVQLVESGGGLVKPGGSLRLSCAASGFTFSTYTMSWVRQAPGKGLEWVSTISPGDSFGYYYPDSVQGRFTISRDNAKNSLYLQMNSLRAEDTAVYYCARDIYYNYGAWFAYWGQGTLVTVSS
VL: DIQLTQSPSSLSASVGDRVTITCKASQSVDYDGDSYMNWYQQKPGKAPKLLIYAASTLESGVPSRFSGSGSGTDFTLTISSLQPEDFATYYCQQSNEDPRTFGQGTKVEIK
B2: H2/L1: hu24F4 variant, heavy chain version H2 (SEQ ID NO: 44), light chain version L1 (antibody, V domains shown)
VH: B1 VH with F57S, G58T, Y59I, P62A, Q66K
VL: B1 VL
B3: H6/L0: hu24F4 variant, heavy chain version H6 (SEQ ID NO: 52), light chain version L0 (SEQ ID NO: 54) (antibody, V domains shown)
VH: B1 VH with E1D, S49A, P53G, D55N, S56N, F57Y, Y60S, Q66K, A98T
VL: B1 VL with D1A
B4: H1/L1: hu24F4 variant, heavy chain version H1 (SEQ ID NO: 42), light chain version L1 (antibody, V domains shown)
VH: EVQLVESGGGLVKPGGSLRLSCAASGFTFSTYTMSWVRQAPGKGLEWVSTISPGDSFGYYPDSVKGRFTISRDNAKNSLYLQMNSLRAEDTAVYYCARDIYYNYGAWFAYWGQGTLVTVSS
VL: B1 VL
B5: H0/L1: hu24F4 variant, heavy chain version H0 (SEQ ID NO: 40), light chain version L1 (SEQ ID NO: 56) (antibody, V domains shown)
VH: B4 VH with T50A, P53G, G54S, D55G, S56G, F57S, G58T, P61A
VL: B1 VL
B6: H5/L1: hu24F4 variant, heavy chain version H5 (SEQ ID NO: 49), light chain version L1 (antibody, V domains shown)
VH: B1 VH with E1D, E6Q, S49A, S86R, A98T, Q114R
VL: B1 VL

target: T1, human BDCA2 ectodomain; experiment: Octet binding of mAbs on anti-human Fc tips to monomeric huBDCA2; settings: Example 5, conditioned medium, hu24F4 variants
Description: Site-directed mutagenesis was performed using Agilent's QuikChange II mutagenesis kit following the manufacturer's recommended protocol. The C95S variant was constructed using the mutagenic primer 5′ GCAACCTATTACTGTCAACAAAGTAATGAGGATCCTCGGAC 3′ (SEQ ID NO: 38) and its reverse complement, which introduced a new HincII site, producing plasmid pEAG2678. The C95T variant was constructed using the mutagenic primer 5′ CAACCTATTACTGTCAGCAAACTAATGAAGATCCTCGGACGTTCG 3′ (SEQ ID NO: 39) and its reverse complement, which removed a BamHI site, producing plasmid pEAG2679. Mutated plasmids were identified by screening for the introduced restriction site changes. The full-length light chain cDNA sequences in the resultant plasmids were confirmed by DNA sequencing. Wildtype ch24F4 and the C95S and C95T variant mAbs were expressed transiently in 293E cells by co-transfection of pYL672 and pYL671, pEAG2678 or pEAG2679. Conditioned medium was harvested at 2 days post-transfection. Titers (assayed by Octet on anti-human Fc tips) of both variants were similar to that of wildtype ch24F4, and Western blots of nonreducing SDS-PAGE indicated no gross aggregation or obvious clipping relative to wildtype ch24F4 mAb. […] Conditioned medium containing ch24F4 and the C95 variant mAbs was assayed by Octet for binding to human BDCA2 ectodomain. Antibodies from conditioned medium from transiently transfected cells were bound to anti-human Fc tips, then monomeric huBDCA2 was flowed over the Octet tips, to examine binding and dissociation.
Conditioned medium containing ch24F4 and all hu24F4 variant mAbs was assayed by Octet for binding to human BDCA2 ectodomain. The monomeric huBDCA2 ectodomain was prepared by proteolytic cleavage from the purified muIgG2a Fc-huBDCA2 fusion protein (relevant plasmid: pEAG2423). Antibodies from conditioned medium from transiently transfected cells were bound to anti-human Fc tips, and then monomeric huBDCA2 was flowed over the Octet tips, to examine binding and dissociation.
To explore the possibility of enhancing hu24F4 affinity by substitution at the position of the 24F4 version L1 CDR L3 unpaired cysteine (C95S in hu24F4 light chain expression vector pYL740), a number of version L1 variants were constructed by site-directed mutagenesis. Backmutation to the unpaired cysteine, i.e., S95C, was constructed by site-directed mutagenesis producing plasmid pYL749. Variants S95T, S95A, and S95V were constructed by site-directed mutagenesis producing plasmids pYL750, pYL751, and pYL752, respectively. The full-length light chain cDNA sequences in the resultant plasmids were confirmed by DNA sequencing. C95 variant hu24F4 mAbs were expressed transiently in 293E cells by co-transfection of hu24F4 H4 heavy chain pYL746 or hu24F4 H5 heavy chain pYL747 with hu24F4 L1 variant light chains C95S pYL740, S95C pYL749, S95T pYL750, S95A pYL751 or S95V pYL752 plasmids. Conditioned medium was harvested at 2 days post-transfection. Titers (assayed by Octet on anti-human Fc tips) of all variants were similar, and Western blots of nonreducing SDS-PAGE indicated no gross aggregation or obvious clipping. Conditioned medium containing the C95 variant mAbs was assayed by Octet for binding to human BDCA2 ectodomain. Antibodies from conditioned medium from transiently transfected cells were bound to anti-human Fc tips, then monomeric huBDCA2 was flowed over the Octet tips, to examine binding and dissociation. C95A variants had the slowest off-rates.

| Molecule | kdis | kon |
| --- | --- | --- |
| B1 | 0.00586 s⁻¹ | 452000 M⁻¹ s⁻¹ |
| B2 | 3.35e-06 s⁻¹ | 100000 M⁻¹ s⁻¹ |
| B3 | 0.00137 s⁻¹ | 273000 M⁻¹ s⁻¹ |
| B4 | 5.03e-06 s⁻¹ | 100000 M⁻¹ s⁻¹ |
| B5 | 9.5e-06 s⁻¹ | 100000 M⁻¹ s⁻¹ |

target: T2, surface human BDCA2; experiment: Direct binding dilution titration FACS on surface human BDCA2; settings: transfected cells co-expressing BDCA2 and FcεRIγ
Description: Expression vectors (ch24F4 heavy chain vectors pYL670 or pYL672 and ch24F4 light chain vector pYL671) were co-transfected into 293-EBNA cells and transfected cells were tested for antibody secretion and specificity (empty vector- and a molecularly cloned irrelevant mAb vector-transfected cells served as controls). […] Direct FACS binding to surface human BDCA2 confirmed the specificity of ch24F4. The EC50 binding of both variants of ch24F4 was equivalent to that of the murine 24F4 mAb by direct binding to surface expressed human BDCA2 by dilution titration FACS assay. Stable CHO cell lines secreting ch24F4-huIgG1, kappa mAb and agly ch24F4-huIgG4/G1 hybrid kappa mAb were produced by co-transfection with pYL672/pYL671 and pYL670/pYL671, respectively.
Site-directed mutagenesis was performed using Agilent's QuikChange II mutagenesis kit following the manufacturer's recommended protocol. The C95S variant was constructed using the mutagenic primer 5′ GCAACCTATTACTGTCAACAAAGTAATGAGGATCCTCGGAC 3′ (SEQ ID NO: 38) and its reverse complement, which introduced a new HincII site, producing plasmid pEAG2678. The C95T variant was constructed using the mutagenic primer 5′ CAACCTATTACTGTCAGCAAACTAATGAAGATCCTCGGACGTTCG 3′ (SEQ ID NO: 39) and its reverse complement, which removed a BamHI site, producing plasmid pEAG2679. […]

| Molecule | direct binding to surface human BDCA2, in words |
| --- | --- |
| B6 | “best” variants |

system: CD62L on the surface of human pDCs; experiment: CD62L surface expression on pDCs by flow cytometry; format: cell-based; settings: PBMC pre-treated 30 minutes, then 10 μg/mL BIIB059 for 1 hour
Description: The MFI of CD62L was determined by gating on pDCs as defined by CD14−, CD20−, HLA-DR+ and CD123+.
Metalloproteinase are known to induce CD62L shedding from the surface of immune cells. […] The surface expression of CD62L was assayed by flow cytometry. GM6001 inhibited the BIIB059-mediated down-modulation CD62L in a dose dependent manner (FIG. 45).

| Molecule | BIIB059-mediated down-modulation of CD62L |
| --- | --- |
| CNC(=O)[C@H](Cc1c[nH]c2ccccc12)NC(=O)[C@@H](CC(=O)NO)CC(C)C [GM6001, reference compound] | inhibited |
